From patent US20130101549A1 (Biogen, published 2013) come the findings set out here.

One test addresses T1, murine HVEM-Ig (mouse, UniProt Q80WM9 39-210).
T1 construct: Expressed and purified in house
T1 sequence (looked up): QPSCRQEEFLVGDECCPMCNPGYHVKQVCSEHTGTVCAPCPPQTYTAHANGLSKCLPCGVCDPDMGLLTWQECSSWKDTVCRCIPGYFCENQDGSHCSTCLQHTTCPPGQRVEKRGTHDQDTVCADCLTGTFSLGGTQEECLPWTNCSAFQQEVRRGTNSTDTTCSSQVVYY
The test is described as follows: ELISA, muHVEM-Ig coated at 2 ug/ml, HRP goat anti-human kappa; the number is C of the printed 4-P fit (A 0.036, B 0.816, D 1.534, R^2 0.997); Fab-Light is BIIB71F10-132 by paragraph 503. The procedure:
(§1) Human and murine ErbB2-Fc were obtained from R&D Systems. Wells of 96-well plates were coated with 2 ug/ml or 0.2 ug/ml of human or murine HER2-Fc by incubation overnight at 4-8° C. with either of these six proteins (80 ul/well of a 0.2 or 2 ug/ml solution in PBS). Wells were emptied, filled completely with a solution of PBS with 1% BSA (blocking buffer) and incubated at room temperature for 1 hour. Wells were emptied, washed twice PBS containing 0.05% Tween 20 (PBST) and filled with the samples (80 ul/well of 3× dilution series of the standard and supernatants in blocking buffer) prepared in another 96-well plate. After a 2-hour incubation at room temperature, the wells were emptied, washed three times with PBST and filled with a solution of HRP-conjugated goat pAbs anti-human kappa chain (80 ul/well of a 2000-fold dilution in blocking buffer). After 1-hour incubation, the wells were emptied and filled with a solution of HRP substrate prepared freshly. The color was left to develop for 3 minutes and was stopped by addition of an equal volume of 1N H₂SO₄. Absorbance was measured at 450 nm using a Plate Reader (SpectraMax, Molecular Devices). The data was processed and graphs were created using SoftMax Pro software.
(§2) Human and murine HVEM-Ig were expressed and purified in house.
For orientation: In an ELISA, binding on a coated surface is turned into a signal by an enzyme label.

The target in test [1] is T2, human LTβR-Ig (human, UniProt P36941 31-227).
T2 construct: Expressed and purified in house; also called hLTbR-Ig; human LTBR-Ig
The experiment in a line: FACS (LTbR column of Table 2; format not told there).

Test [2] has as its target T3, human HVEM-Ig (human, UniProt Q92956 39-202).
T3 construct: Expressed and purified in house; also called HVEM-Fc; Herpes virus entry mediator-Ig
T3 sequence (looked up): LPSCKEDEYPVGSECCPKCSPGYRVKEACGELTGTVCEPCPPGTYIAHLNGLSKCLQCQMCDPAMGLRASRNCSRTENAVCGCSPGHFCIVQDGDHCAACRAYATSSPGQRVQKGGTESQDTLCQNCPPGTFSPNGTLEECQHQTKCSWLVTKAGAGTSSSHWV
The test is described as follows: ELISA, huHVEM-Ig coated at 2 ug/ml, HRP goat anti-human kappa; the number is C of the printed 4-P fit (A 0.064, B 0.959, D 1.517, R^2 0.999); Fab-Light is BIIB71F10-132 by paragraph 503. The protocol: as §1, §2

In test [3] the target is T3, human HVEM-Ig. The experiment in a line: FACS (HVEM column of Table 2; format not told there).
Another test has as its target T4, human LTBR-mIgG fusion.
T4 construct: kept apart from m25 (human Fc); not shown: exact end of the LTBR part
The test is described as follows: sandwich ELISA after incubation at 200 ng/ml in human serum (cold or 37°C overnight): HER2-Fc on the plate, human LTBR-mIgG, HRP anti-mouse IgG; the signal needs both bindings at once. The protocol:
An ELISA assay was developed to detect LIGHT-Ab fusions after incubation with human sera. Briefly, 200 ng/mL of LIGHT-Ab fusions were incubated overnight in human serum at 37° C. The serum was assayed in sandwich ELISA as follows. HER2-Fc was immobilized to a solid surface, and was used to capture the LIGHT-Ab fusions. The serum incubated fusion proteins were added to the solid surface. Detection was effected using a human LTBR-mIgG fusion to bind to the LIGHT moiety of the fusion. Horseradish peroxidase (HRP) labeled anti-mouse IgG was used to detect bound LIGHT-Ab fusions.

The next test addresses T5, murine LTβR-Ig (mouse, UniProt P50284 31-223).
T5 construct: Expressed and purified in house; also called mLTbR; murine LTBR-Ig
The test is described as follows: ELISA, muLTBR-Ig coated at 0.2 ug/ml, HRP goat anti-human kappa; the number is C of the printed 4-P fit (A 0.064, B 0.872, D 1.453, R^2 0.999); Fab-Light is BIIB71F10-132 by paragraph 502. The protocol: as §1
(§3) Human and murine LTBR-Ig were expressed and purified in house.

The target in test [4] is T2, human LTβR-Ig. The experiment in a line: ELISA on coated LTbR-Ig. The protocol: as §1, §3
The target of test [5] is Soluble human LTBR (shuLTBR) (human, UniProt P36941 31-227, limits assumed). The experiment in a line: SEC / light scattering. The protocol: Soluble human LTBR (shuLTBR) was prepared by limited proteolytic digestion of human LTBR-Ig and purified by chromatography on protein A Sepharose and Fractogel TMAE. […] Controls with each protein were also included. The samples were analyzed by SEC using a […] column (Phenomenex) in PBS with a Waters Alliance HPLC instrument.

Several values for one entry are separate records, joined by “and”; a condition that tells them apart may be missing. Identical values can stand only once.

T5 sequence (P50284 31-223): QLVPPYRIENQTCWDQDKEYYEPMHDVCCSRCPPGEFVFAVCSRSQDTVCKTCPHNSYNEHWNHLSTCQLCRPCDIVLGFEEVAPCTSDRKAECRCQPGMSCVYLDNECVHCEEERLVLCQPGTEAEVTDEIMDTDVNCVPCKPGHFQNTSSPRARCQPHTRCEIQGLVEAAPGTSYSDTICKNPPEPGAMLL

B1: 71F10 Fab-hLIGHT fusion with the (G4S)4 linker (BIIB71F10-132) (other)
heavy: EVQLLESGGGLVQPGGSLRLSCAASGFTFSSYGMVWVRQAPGKGLEWVSSISSSGGLTWYADSVKGRFTISRDNSKNTLYLQMNSLRAEDTAVYYCASPPGIAVARDYWGQGTLVTVSSASTKGPSVFPLAPSSKSTSGGTAALGCLVKDYFPEPVTVSWNSGALTSGVHTFPAVLQSSGLYSLSSVVTVPSSSLGTQTYICNVNHKPSNTKVDKKVEPKSCDKGGGGSGGGGSGGGGSGGGGSNPAAHLTGANSSLTGSGGPLLWETQLGLAFLRGLSYHDGALVVTKAGYYYIYSKVQLGGVGCPLGLASTITHGLYKRTPRYPEELELLVSQQSPCGRATSSSRVWWDSSFLGGVVHLEAGEEVVVRVLDERLVRLRDGTRSYFGAFMV
light: DIQMTQSPSSLSASVGDRVTITCRASQGISNYLAWYQQKPGKVPKLLIYAASTLQSGVPSRFSGSGSGTDFTLTISSLQPEDVATYYCQKYNSALLTFGGGTKVEIKRTVAAPSVFIFPPSDEQLKSGTASVVCLLNNFYPREAKVQWKVDNALQSGNSQESVTEQDSKDSTYSLSSTLTLSKADYEKHKVYACEVTHQGLSSPVTKSFNRGEC
notes: Trimer of Fab-LIGHT units; also called 71F10 Fab-(G4S)4-LIGHT
As a reminder, the EC50 is the concentration giving half of the maximal effect. Higher therefore signals lower potency in that assay. B1: the EC50 worked out at 2.5 ng/mL with murine HVEM-Ig; 0.2 nM with human LTβR-Ig [1]; 2.45 ng/mL in the test with human HVEM-Ig [2]; 0.5 nM with human HVEM-Ig [3]; 58.8 ng/mL with murine LTβR-Ig; 0.01 nM with human LTβR-Ig [4]. Besides, the binding result with human LTBR-mIgG fusion was “binds”. Moreover, the “stoichiometry (shuLTBR for 1 Fab-Light trimer)” value in test [5] is 2 shuLTBR per trimer and 3 shuLTBR per trimer.
